Experimental data as given in patent publication US20240024426A1, “HYPOTENSIVE PHARMACEUTICAL COMPOSITION COMPRISING TRIPLE ACTIVATOR HAVING ACTIVITY FOR ALL OF GLUCAGON, GLP-1, AND GIP RECEPTORS” (HANMI PHARM. CO., LTD., priority 2020, published 2024).
Bridges are numbered along the chain shown (N, C = ends). Where no end group is shown, it is not given here. [ ]: non-standard residue; d: D form. The star is where a group is joined. Acetyl(2-(4-imidazolyl)) = O=C(Cc1c[nH]cn1)*; Aib = CC(C)(N)C(=O)O

Biological target: T1, human GIP receptor (human, UniProt P48546 22-466)
T1 sequence (looked up): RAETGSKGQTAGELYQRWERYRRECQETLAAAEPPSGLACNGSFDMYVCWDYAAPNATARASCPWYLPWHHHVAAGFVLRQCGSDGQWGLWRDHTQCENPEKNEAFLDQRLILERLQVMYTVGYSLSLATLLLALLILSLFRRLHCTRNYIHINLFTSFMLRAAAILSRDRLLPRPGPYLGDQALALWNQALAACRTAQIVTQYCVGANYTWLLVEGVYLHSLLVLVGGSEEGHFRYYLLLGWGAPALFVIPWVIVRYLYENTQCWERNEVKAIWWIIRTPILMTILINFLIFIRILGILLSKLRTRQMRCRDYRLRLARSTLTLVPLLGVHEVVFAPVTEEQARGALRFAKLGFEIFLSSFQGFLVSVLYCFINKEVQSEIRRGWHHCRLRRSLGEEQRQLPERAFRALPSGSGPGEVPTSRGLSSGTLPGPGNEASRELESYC
Assay: cell-based or functional assay

Binder | In vitro activity compared with native peptide (%) vs. GIP
{Acetyl(2-(4-imidazolyl))}-GQGTFTSDLSKQMDEERAREFIEWLLAQKPSSGAPPPSHG [Triple agonist of SEQ ID NO: 17] | < 0.1%
H[Aib]QGTFTSDYSKYLDEKAQKEFVQWLLDTC (bridge 16-20) [Triple agonist of SEQ ID NO: 30] | 0.8%
H[Aib]QGTFTSDYSIAMDEIHQKDFVNWLLAQKC (bridge 16-20) [Triple agonist of SEQ ID NO: 33] | 10.4%
[Acetyl(2-(4-imidazolyl))]GQGTFTSDLSKQMDSERAREFIEWLKNTGPSSGAPPPSHG [Triple agonist of SEQ ID NO: 18] | < 0.1%
{Acetyl(2-(4-imidazolyl))}-GQGTFTSDYSIQLDEIAVRDFVEWLKNGGPSSGAPPPSHG [Triple agonist of SEQ ID NO: 14] | < 0.1%
H[Aib]QGTFTSDVSSYLLGQAAKQFIAWLVKGGGPSSGAPPPSC [Triple agonist of SEQ ID NO: 3] | < 0.1%
[Acetyl(2-(4-imidazolyl))]GQGTFTSDLSIQYDSEHQRDFIEWLKDTGPSSGAPPPSHG [Triple agonist of SEQ ID NO: 19] | < 0.1%
H[Aib]QGTFTSDYSKYLDEKRAQEFVCWLLAQKGKKNDWKHNIT [Triple agonist of SEQ ID NO: 28] | < 0.1%
[Acetyl(2-(4-imidazolyl))]GQGTFTSDLSIQYEEEAQQDFVEWLKDTGPSSGAPPPSHG [Triple agonist of SEQ ID NO: 20] | < 0.1%
H[Aib]QGTFTSDYSKYLDEKAAKEFVQWLLNTC (bridge 16-20) [Triple agonist of SEQ ID NO: 29] | < 0.1%
H[Aib]QGTFTSDCSKYLDSRAAQDFVQWLLDGGPSSGAPPPS [Triple agonist of SEQ ID NO: 26] | < 0.1%
H[Aib]QGTFTSDYSKYLDEKACKEFVQWLLAQ (bridge 16-20) [Triple agonist of SEQ ID NO: 31] | 2.4%
Y[Aib]QGTFTSDYSKYLDECRAKEFVQWLKNGGPSSGAPPPS (bridge 16-20) [Triple agonist of SEQ ID NO: 24] | < 0.1%
Y[Aib]QGTFTSDYSKYLDECRAKEFVQWLLDHHPSSGQPPPS (bridge 16-20) [Triple agonist of SEQ ID NO: 21] | 22.7%
H[Aib]QGTFTSDYSKYLDEKACKDFVQWLLDGGPSSGAPPPS (bridge 16-20) [Triple agonist of SEQ ID NO: 32] | 8.8%
{Acetyl(2-(4-imidazolyl))}-GQGTFTSDLSKQMDSEAQQLFIEWLKNGGPSSGAPPPSHG [Triple agonist of SEQ ID NO: 16] | < 0.1%
H[Aib]QGTFTSDYSKYLDERACQDFVQWLLDQGGPSSGAPPPS [Triple agonist of SEQ ID NO: 27] | 0.9%
H[Aib]QGTFTSDVSSYLDGQAQKEFIAWLVKGC [Triple agonist of SEQ ID NO: 2] | < 0.1%
{Acetyl(2-(4-imidazolyl))}-GEGTFISDYSIQLDEIAVQDFVEWLLAQKPSSGAPPPSHG [Triple agonist of SEQ ID NO: 13] | < 0.1%
H[Aib]QGTFTSDCSKYLDERAAQDFVQWLLDGGPSSGAPPPS [Triple agonist of SEQ ID NO: 25] | < 0.1%
Y[Aib]QGTFTSDYSKYLDECRAKEFVQWLLAQKGKKNDWKHNIT (bridge 16-20) [Triple agonist of SEQ ID NO: 23] | < 0.1%
Y[Aib]QGTFTSDYSKCLDEKRAKEFVQWLLDHHPSSGQPPPS (bridge 16-20) [Triple agonist of SEQ ID NO: 22] | 59.7%

Biological target: human GLP-1 receptor (human, UniProt P43220 24-463)
Assay: cell-based or functional assay

Binder | In vitro activity compared with native peptide (%) vs. GLP-1
{Acetyl(2-(4-imidazolyl))}-GQGTFTSDLSKQMDEERAREFIEWLLAQKPSSGAPPPSHG [Triple agonist of SEQ ID NO: 17] | 0.2%
H[Aib]QGTFTSDYSKYLDEKAQKEFVQWLLDTC (bridge 16-20) [Triple agonist of SEQ ID NO: 30] | 142%
H[Aib]QGTFTSDYSIAMDEIHQKDFVNWLLAQKC (bridge 16-20) [Triple agonist of SEQ ID NO: 33] | 24.5%
[Acetyl(2-(4-imidazolyl))]GQGTFTSDLSKQMDSERAREFIEWLKNTGPSSGAPPPSHG [Triple agonist of SEQ ID NO: 18] | < 0.1%
{Acetyl(2-(4-imidazolyl))}-GQGTFTSDYSIQLDEIAVRDFVEWLKNGGPSSGAPPPSHG [Triple agonist of SEQ ID NO: 14] | 28%
H[Aib]QGTFTSDVSSYLLGQAAKQFIAWLVKGGGPSSGAPPPSC [Triple agonist of SEQ ID NO: 3] | 1.8%
[Acetyl(2-(4-imidazolyl))]GQGTFTSDLSIQYDSEHQRDFIEWLKDTGPSSGAPPPSHG [Triple agonist of SEQ ID NO: 19] | < 0.1%
H[Aib]QGTFTSDYSKYLDEKRAQEFVCWLLAQKGKKNDWKHNIT [Triple agonist of SEQ ID NO: 28] | 17.2%
[Acetyl(2-(4-imidazolyl))]GQGTFTSDLSIQYEEEAQQDFVEWLKDTGPSSGAPPPSHG [Triple agonist of SEQ ID NO: 20] | < 0.1%
H[Aib]QGTFTSDYSKYLDEKAAKEFVQWLLNTC (bridge 16-20) [Triple agonist of SEQ ID NO: 29] | 38.5%
H[Aib]QGTFTSDCSKYLDSRAAQDFVQWLLDGGPSSGAPPPS [Triple agonist of SEQ ID NO: 26] | 64.5%
H[Aib]QGTFTSDYSKYLDEKACKEFVQWLLAQ (bridge 16-20) [Triple agonist of SEQ ID NO: 31] | 135%
Y[Aib]QGTFTSDYSKYLDECRAKEFVQWLKNGGPSSGAPPPS (bridge 16-20) [Triple agonist of SEQ ID NO: 24] | 41.2%
Y[Aib]QGTFTSDYSKYLDECRAKEFVQWLLDHHPSSGQPPPS (bridge 16-20) [Triple agonist of SEQ ID NO: 21] | 17.8%
H[Aib]QGTFTSDYSKYLDEKACKDFVQWLLDGGPSSGAPPPS (bridge 16-20) [Triple agonist of SEQ ID NO: 32] | 151%
{Acetyl(2-(4-imidazolyl))}-GQGTFTSDLSKQMDSEAQQLFIEWLKNGGPSSGAPPPSHG [Triple agonist of SEQ ID NO: 16] | 2.1%
H[Aib]QGTFTSDYSKYLDERACQDFVQWLLDQGGPSSGAPPPS [Triple agonist of SEQ ID NO: 27] | 83.1%
H[Aib]QGTFTSDVSSYLDGQAQKEFIAWLVKGC [Triple agonist of SEQ ID NO: 2] | 5.9%
{Acetyl(2-(4-imidazolyl))}-GEGTFISDYSIQLDEIAVQDFVEWLLAQKPSSGAPPPSHG [Triple agonist of SEQ ID NO: 13] | < 0.1%
H[Aib]QGTFTSDCSKYLDERAAQDFVQWLLDGGPSSGAPPPS [Triple agonist of SEQ ID NO: 25] | 82.6%
Y[Aib]QGTFTSDYSKYLDECRAKEFVQWLLAQKGKKNDWKHNIT (bridge 16-20) [Triple agonist of SEQ ID NO: 23] | 4.01%
Y[Aib]QGTFTSDYSKCLDEKRAKEFVQWLLDHHPSSGQPPPS (bridge 16-20) [Triple agonist of SEQ ID NO: 22] | 20.1%

Biological target: human GCG receptor (human, UniProt P47871 26-477)
Sequence (P47871 26-477): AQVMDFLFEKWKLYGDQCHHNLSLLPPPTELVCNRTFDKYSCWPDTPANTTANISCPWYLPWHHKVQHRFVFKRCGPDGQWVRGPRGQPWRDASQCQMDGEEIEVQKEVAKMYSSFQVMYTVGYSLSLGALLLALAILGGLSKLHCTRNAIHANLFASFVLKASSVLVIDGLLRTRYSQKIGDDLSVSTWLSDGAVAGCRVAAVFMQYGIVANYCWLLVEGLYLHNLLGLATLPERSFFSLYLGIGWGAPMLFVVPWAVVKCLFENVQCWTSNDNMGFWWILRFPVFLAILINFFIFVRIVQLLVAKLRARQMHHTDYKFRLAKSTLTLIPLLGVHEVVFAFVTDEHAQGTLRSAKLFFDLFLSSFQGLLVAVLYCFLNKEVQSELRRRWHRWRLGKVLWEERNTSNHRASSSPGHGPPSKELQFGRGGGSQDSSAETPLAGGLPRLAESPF
Assay: cell-based or functional assay

Binder | In vitro activity compared with native peptide (%) vs. Glucagon
{Acetyl(2-(4-imidazolyl))}-GQGTFTSDLSKQMDEERAREFIEWLLAQKPSSGAPPPSHG [Triple agonist of SEQ ID NO: 17] | < 0.1%
H[Aib]QGTFTSDYSKYLDEKAQKEFVQWLLDTC (bridge 16-20) [Triple agonist of SEQ ID NO: 30] | 0.7%
H[Aib]QGTFTSDYSIAMDEIHQKDFVNWLLAQKC (bridge 16-20) [Triple agonist of SEQ ID NO: 33] | < 0.1%
[Acetyl(2-(4-imidazolyl))]GQGTFTSDLSKQMDSERAREFIEWLKNTGPSSGAPPPSHG [Triple agonist of SEQ ID NO: 18] | < 0.1%
{Acetyl(2-(4-imidazolyl))}-GQGTFTSDYSIQLDEIAVRDFVEWLKNGGPSSGAPPPSHG [Triple agonist of SEQ ID NO: 14] | < 0.1%
H[Aib]QGTFTSDVSSYLLGQAAKQFIAWLVKGGGPSSGAPPPSC [Triple agonist of SEQ ID NO: 3] | < 0.1%
[Acetyl(2-(4-imidazolyl))]GQGTFTSDLSIQYDSEHQRDFIEWLKDTGPSSGAPPPSHG [Triple agonist of SEQ ID NO: 19] | < 0.1%
H[Aib]QGTFTSDYSKYLDEKRAQEFVCWLLAQKGKKNDWKHNIT [Triple agonist of SEQ ID NO: 28] | 1.6%
[Acetyl(2-(4-imidazolyl))]GQGTFTSDLSIQYEEEAQQDFVEWLKDTGPSSGAPPPSHG [Triple agonist of SEQ ID NO: 20] | < 0.1%
H[Aib]QGTFTSDYSKYLDEKAAKEFVQWLLNTC (bridge 16-20) [Triple agonist of SEQ ID NO: 29] | 6%
H[Aib]QGTFTSDCSKYLDSRAAQDFVQWLLDGGPSSGAPPPS [Triple agonist of SEQ ID NO: 26] | 0.2%
H[Aib]QGTFTSDYSKYLDEKACKEFVQWLLAQ (bridge 16-20) [Triple agonist of SEQ ID NO: 31] | 2.2%
Y[Aib]QGTFTSDYSKYLDECRAKEFVQWLKNGGPSSGAPPPS (bridge 16-20) [Triple agonist of SEQ ID NO: 24] | 9.3%
Y[Aib]QGTFTSDYSKYLDECRAKEFVQWLLDHHPSSGQPPPS (bridge 16-20) [Triple agonist of SEQ ID NO: 21] | 267%
H[Aib]QGTFTSDYSKYLDEKACKDFVQWLLDGGPSSGAPPPS (bridge 16-20) [Triple agonist of SEQ ID NO: 32] | 1.7%
{Acetyl(2-(4-imidazolyl))}-GQGTFTSDLSKQMDSEAQQLFIEWLKNGGPSSGAPPPSHG [Triple agonist of SEQ ID NO: 16] | < 0.1%
H[Aib]QGTFTSDYSKYLDERACQDFVQWLLDQGGPSSGAPPPS [Triple agonist of SEQ ID NO: 27] | 0.8%
H[Aib]QGTFTSDVSSYLDGQAQKEFIAWLVKGC [Triple agonist of SEQ ID NO: 2] | < 0.1%
{Acetyl(2-(4-imidazolyl))}-GEGTFISDYSIQLDEIAVQDFVEWLLAQKPSSGAPPPSHG [Triple agonist of SEQ ID NO: 13] | < 0.1%
H[Aib]QGTFTSDCSKYLDERAAQDFVQWLLDGGPSSGAPPPS [Triple agonist of SEQ ID NO: 25] | 0.1%
Y[Aib]QGTFTSDYSKYLDECRAKEFVQWLLAQKGKKNDWKHNIT (bridge 16-20) [Triple agonist of SEQ ID NO: 23] | 9.3%
Y[Aib]QGTFTSDYSKCLDEKRAKEFVQWLLDHHPSSGQPPPS (bridge 16-20) [Triple agonist of SEQ ID NO: 22] | 140%
